Data taken from paper PMC9922296, “Mechanistic insights into RNA surveillance by the canonical poly(A) polymerase Pla1 of the MTREC complex” (Nature Communications, 2023).
Several values for one entry are separate records, joined by “and”; a condition that tells them apart may be missing. Equal values may be shown once. One block for each molecule: values may come before it. No end group written: not given here.

Assays:
[1] = biological target: C-terminal RRM domain of Pla1 (Pla1RRM, residues 352-566), purified (S. pombe) (UniProt Q10295); assay: ITC; MicroCal PEAQ-ITC, 25 °C, 20 mM HEPES pH 7.5, 150 mM NaCl, 2 mM BME; 40-50 µM protein in the cell, 400-500 µM ligand in the syringe; one-binding site model
[2] = biological target: T1, Pla1FL (full-length Pla1, residues 1-566) (S. pombe, UniProt Q10295 1-566); assay: BLI; biotinylated Red1 288-345 or Iss1 30-76 immobilised on streptavidin biosensors, 2-fold serial dilution of Pla1FL as analyte; 25 °C; 20 mM HEPES pH 7.5, 150 mM NaCl, 2 mM BME, 0.01% Tween-20; global 1:1 fit; conditions: both partners purified
T1 construct: Pla1, canonical poly(A) polymerase, S. pombe, residues 1-566; the His6 tag is non-cleavable; source: E. coli BL21 (DE3) Rosetta2, purified (His-Trap, Resource Q, Superdex 200); not shown: His6, N-terminal, kept
T1 sequence (looked up): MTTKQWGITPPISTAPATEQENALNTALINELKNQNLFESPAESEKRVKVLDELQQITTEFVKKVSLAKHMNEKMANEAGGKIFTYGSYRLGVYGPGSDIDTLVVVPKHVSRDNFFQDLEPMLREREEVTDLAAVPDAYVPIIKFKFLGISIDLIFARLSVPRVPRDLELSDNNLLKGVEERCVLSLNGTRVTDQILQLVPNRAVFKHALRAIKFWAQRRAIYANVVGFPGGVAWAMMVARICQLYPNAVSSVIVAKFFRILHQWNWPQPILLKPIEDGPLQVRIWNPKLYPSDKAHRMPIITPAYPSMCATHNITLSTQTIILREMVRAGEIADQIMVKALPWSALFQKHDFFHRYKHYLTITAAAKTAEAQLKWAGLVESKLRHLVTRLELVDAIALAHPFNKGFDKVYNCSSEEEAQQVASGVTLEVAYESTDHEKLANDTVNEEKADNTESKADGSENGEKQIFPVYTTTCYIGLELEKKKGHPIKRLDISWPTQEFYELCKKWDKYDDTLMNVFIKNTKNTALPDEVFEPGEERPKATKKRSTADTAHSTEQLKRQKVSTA

[3] = biological target: Biotinylated Iss1 residues 30-76 (S. pombe); assay: BLI; Octet RED96e, 25 °C, 20 mM HEPES pH 7.5, 150 mM NaCl, 2 mM BME, 0.01% Tween-20; biotinylated Red1_(288-345) or Iss1_(30-76) on streptavidin biosensors, 2-fold serial dilution of Pla1FL; global 1:1 fit; apparent
[4] = biological target: T2, C-terminal RRM domain of Pla1 (Pla1RRM, residues 352-566), purified (S. pombe, UniProt Q10295 352-566); assay: ITC; MicroCal PEAQ-ITC, 25 °C, 20 mM HEPES pH 7.5, 150 mM NaCl, 2 mM BME; 40-50 µM protein in the cell, 400-500 µM ligand in the syringe; one-binding site model; conditions: both partners purified
T2 construct: canonical poly(A) polymerase Pla1, S. pombe, C-terminal RRM domain, residues 352-566; also called Pla1 CTD; source: E. coli BL21 (DE3) Rosetta2, purified (His-Trap, TEV cleavage, Resource Q, Superdex 200); not shown: His6, N-terminal, cleaved
T2 sequence (looked up): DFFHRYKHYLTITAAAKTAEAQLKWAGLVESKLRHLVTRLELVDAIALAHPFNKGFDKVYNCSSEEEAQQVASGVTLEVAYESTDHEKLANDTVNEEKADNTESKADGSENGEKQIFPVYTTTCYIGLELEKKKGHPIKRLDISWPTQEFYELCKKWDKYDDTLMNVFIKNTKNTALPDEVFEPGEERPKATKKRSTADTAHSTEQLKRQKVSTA

[5] = biological target: T3, Full-length Pla1 (Pla1FL, residues 1-566) with non-cleavable N-terminal His6, purified (S. pombe, UniProt Q10295 1-566); assay: BLI; Octet RED96e, 25 °C, 20 mM HEPES pH 7.5, 150 mM NaCl, 2 mM BME, 0.01% Tween-20; biotinylated Red1_(288-345) or Iss1_(30-76) on streptavidin biosensors, 2-fold serial dilution of Pla1FL; global 1:1 fit; apparent; conditions: both partners purified
T3 construct: canonical poly(A) polymerase Pla1, S. pombe, full length, residues 1-566; source: E. coli BL21 (DE3) Rosetta2, purified (His-Trap, Resource Q, Superdex 200); not shown: His6, N-terminal, kept
T3 sequence (looked up): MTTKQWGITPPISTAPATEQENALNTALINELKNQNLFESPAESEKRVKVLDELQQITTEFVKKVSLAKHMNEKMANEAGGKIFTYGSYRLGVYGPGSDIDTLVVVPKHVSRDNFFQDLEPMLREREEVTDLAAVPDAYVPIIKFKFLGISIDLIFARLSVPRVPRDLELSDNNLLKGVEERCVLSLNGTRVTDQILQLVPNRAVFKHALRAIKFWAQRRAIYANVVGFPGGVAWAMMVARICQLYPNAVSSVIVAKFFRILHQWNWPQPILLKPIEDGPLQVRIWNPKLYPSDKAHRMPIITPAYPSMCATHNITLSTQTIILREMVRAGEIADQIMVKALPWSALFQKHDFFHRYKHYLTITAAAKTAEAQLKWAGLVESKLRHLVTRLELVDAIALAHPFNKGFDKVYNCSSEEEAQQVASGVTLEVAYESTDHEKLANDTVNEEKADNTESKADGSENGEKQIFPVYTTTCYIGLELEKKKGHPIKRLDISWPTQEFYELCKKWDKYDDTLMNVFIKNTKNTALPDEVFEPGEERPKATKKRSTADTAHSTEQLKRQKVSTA

[6] = biological target: T4, Pla1RRM (C-terminal RRM domain of Pla1, residues 352-566) (S. pombe, UniProt Q10295 352-566); assay: ITC; Red1 or Iss1 construct in the syringe (400-500 µM) titrated into Pla1RRM (wild type or mutant) in the cell (40-50 µM); 25 °C; 20 mM HEPES pH 7.5, 150 mM NaCl, 2 mM BME; one-binding site model; each independent measurement listed; conditions: both partners purified
T4 construct: Pla1, canonical poly(A) polymerase, S. pombe, C-terminal RRM domain, residues 352-566; also called Pla1 RRM domain; Pla1 CTD; source: E. coli BL21 (DE3) Rosetta2, purified (His-Trap, TEV cleavage, Resource Q, Superdex 200); not shown: His6, N-terminal, cleaved
T4 sequence (looked up): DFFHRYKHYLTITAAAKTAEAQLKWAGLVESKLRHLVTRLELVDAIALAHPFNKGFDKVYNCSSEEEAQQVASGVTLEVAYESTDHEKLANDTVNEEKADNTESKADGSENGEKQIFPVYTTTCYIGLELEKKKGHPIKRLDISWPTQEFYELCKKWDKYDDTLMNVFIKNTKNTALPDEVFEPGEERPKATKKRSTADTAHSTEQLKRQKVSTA

[7] = biological target: T4, Pla1RRM (C-terminal RRM domain of Pla1, …); assay: as above; conditions: both partners purified; remark: listed apart in the source
[8] = biological target: T5, Red1 residues 288-345 with Val313 mutated to arginine (S. pombe, UniProt Q9UTR8 288-345, Val313 to an arginine residue); assay: ITC
T5 sequence: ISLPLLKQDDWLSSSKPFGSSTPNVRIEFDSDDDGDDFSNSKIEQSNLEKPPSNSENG

koff [2]: 0.0242 s⁻¹
B1: biotinylated Iss1 30-76 (domain or fragment, S. pombe)
chain: VSNAKSPEQASEESDDSDIEFIIETKPGERAEPLGGSIATLGSTRPS
modifications: also: biotin (EZ-Link NHS-PEG4-Biotin), sites not given here
notes: Iss1, S. pombe, residues 30-76; same protein as Dm12, biotinylated for immobilisation on streptavidin biosensors; also called Iss1_(30-76), biotin-labelled; source: E. coli BL21 (DE3) Rosetta2, purified, biotinylated with EZ-Link NHS-PEG4-Biotin; not shown: His-Thioredoxin, N-terminal, cleaved

fold loss in affinity against wild-type Red1_(288-345) [4]: ~13 fold
B3: Red1 residues 288-345 with Val313 mutated to arginine (domain or fragment, S. pombe, UniProt Q9UTR8 288-345, looked up)
chain: ISLPLLKQDDWLSSSKPFGSSTPNVRIEFDSDDDGDDFSNSKIEQSNLEKPPSNSENG
notes: also called V313R; source: E. coli BL21 (DE3), purified; not shown: GB1, N-terminal, cleaved; His6, C-terminal, kept

koff [2]: 0.0163 s⁻¹
kon [2]: 275000 M⁻¹ s⁻¹
B5: biotinylated Red1 288-345 (domain or fragment, S. pombe)
chain: ISLPLLKQDDWLSSSKPFGSSTPNVVIEFDSDDDGDDFSNSKIEQSNLEKPPSNSENG
modifications: also: biotin (EZ-Link NHS-PEG4-Biotin), sites not given here
notes: same protein as Dm2, biotinylated for immobilisation on streptavidin biosensors; source: E. coli BL21 (DE3), purified, biotinylated with EZ-Link NHS-PEG4-Biotin; not shown: GB1, N-terminal, cleaved; His6, C-terminal, kept

Kd [6]: 15800 nM and 19900 nM
stoichiometry N [6]: 1.13 and 0.96
B6: Red1 288-345 V313R (domain or fragment, S. pombe, UniProt Q9UTR8 288-345, looked up)
chain: ISLPLLKQDDWLSSSKPFGSSTPNVRIEFDSDDDGDDFSNSKIEQSNLEKPPSNSENG
notes: source: E. coli BL21 (DE3), purified (His-Trap, TEV cleavage, second IMAC, Superdex 75); not shown: GB1, N-terminal, cleaved; His6, C-terminal, kept

Kd [6]: 1010 nM and 1450 nM
stoichiometry N [6]: 1.04 and 1.05
Kd [7]: 1200 ± 300 nM
B7: Red1 288-345 S308A (domain or fragment, S. pombe, UniProt Q9UTR8 288-345, looked up)
chain: ISLPLLKQDDWLSSSKPFGSATPNVVIEFDSDDDGDDFSNSKIEQSNLEKPPSNSENG
notes: also called Red1S308A; source: E. coli BL21 (DE3), purified (His-Trap, TEV cleavage, second IMAC, Superdex 75); not shown: GB1, N-terminal, cleaved; His6, C-terminal, kept

Kd [4]: 7900 nM
B10: Red1 residues 288-322, purified (domain or fragment, S. pombe, UniProt Q9UTR8 288-322, looked up)
chain: ISLPLLKQDDWLSSSKPFGSSTPNVVIEFDSDDDG
notes: as for B6

Further lines, the molecule ahead of its results:

Molecule: Iss1 residues 30-76, purified (domain or fragment)
Kd [1]: 2500 nM

B2: Full-length Pla1 (Pla1FL, residues 1-566) with non-cleavable N-terminal His6, purified (enzyme)
chain: MTTKQWGITPPISTAPATEQENALNTALINELKNQNLFESPAESEKRVKVLDELQQITTEFVKKVSLAKHMNEKMANEAGGKIFTYGSYRLGVYGPGSDIDTLVVVPKHVSRDNFFQDLEPMLREREEVTDLAAVPDAYVPIIKFKFLGISIDLIFARLSVPRVPRDLELSDNNLLKGVEERCVLSLNGTRVTDQILQLVPNRAVFKHALRAIKFWAQRRAIYANVVGFPGGVAWAMMVARICQLYPNAVSSVIVAKFFRILHQWNWPQPILLKPIEDGPLQVRIWNPKLYPSDKAHRMPIITPAYPSMCATHNITLSTQTIILREMVRAGEIADQIMVKALPWSALFQKHDFFHRYKHYLTITAAAKTAEAQLKWAGLVESKLRHLVTRLELVDAIALAHPFNKGFDKVYNCSSEEEAQQVASGVTLEVAYESTDHEKLANDTVNEEKADNTESKADGSENGEKQIFPVYTTTCYIGLELEKKKGHPIKRLDISWPTQEFYELCKKWDKYDDTLMNVFIKNTKNTALPDEVFEPGEERPKATKKRSTADTAHSTEQLKRQKVSTA
Kd [3]: 115 nM
koff [3]: 0.024 s⁻¹
kon [3]: 210000 M⁻¹ s⁻¹

B4: Biotinylated Red1 residues 288-345 (domain or fragment, S. pombe, UniProt Q9UTR8 288-345, looked up)
chain: ISLPLLKQDDWLSSSKPFGSSTPNVVIEFDSDDDGDDFSNSKIEQSNLEKPPSNSENG
modifications: also: biotin (EZ-Link NHS-PEG4-Biotin), site not given here
notes: source: E. coli BL21 (DE3), purified, biotinylated; not shown: GB1, N-terminal, cleaved; His6, C-terminal, kept
Kd [5]: 59.2 nM
koff [5]: 0.016 s⁻¹
kon [5]: 280000 M⁻¹ s⁻¹

B8: Red1 288-345 N311A (domain or fragment, S. pombe, UniProt Q9UTR8 288-345, looked up)
chain: ISLPLLKQDDWLSSSKPFGSSTPAVVIEFDSDDDGDDFSNSKIEQSNLEKPPSNSENG
notes: also called Red1N311A; source: E. coli BL21 (DE3), purified (His-Trap, TEV cleavage, second IMAC, Superdex 75); not shown: GB1, N-terminal, cleaved; His6, C-terminal, kept
Kd [6]: 770 nM and 1530 nM
stoichiometry N [6]: 0.99 and 1.05
Kd [7]: 1100 ± 250 nM

B9: Red1 288-322 (domain or fragment, S. pombe)
chain: ISLPLLKQDDWLSSSKPFGSSTPNVVIEFDSDDDG
notes: as for B6
Kd [6]: 7300 nM and 8400 nM
stoichiometry N [6]: 1.31 and 1.3

B11: C-terminal RRM domain of Pla1 (Pla1RRM, residues 352-566), purified (domain or fragment)
chain: DFFHRYKHYLTITAAAKTAEAQLKWAGLVESKLRHLVTRLELVDAIALAHPFNKGFDKVYNCSSEEEAQQVASGVTLEVAYESTDHEKLANDTVNEEKADNTESKADGSENGEKQIFPVYTTTCYIGLELEKKKGHPIKRLDISWPTQEFYELCKKWDKYDDTLMNVFIKNTKNTALPDEVFEPGEERPKATKKRSTADTAHSTEQLKRQKVSTA
Kd [8]: 17900 nM
